Test results from patent publication US20220306762A1 (CRYSTAL BIOSCIENCE, published 2022).
Residue numbers refer to the chain shown, from its start.

T1: His-tagged mouse CD38 (ACRO Biosystems #CD8-M5223) (mouse, UniProt P56528 45-304)
T1 construct: bought recombinant protein with His tag; also called Murine
T1 sequence (looked up): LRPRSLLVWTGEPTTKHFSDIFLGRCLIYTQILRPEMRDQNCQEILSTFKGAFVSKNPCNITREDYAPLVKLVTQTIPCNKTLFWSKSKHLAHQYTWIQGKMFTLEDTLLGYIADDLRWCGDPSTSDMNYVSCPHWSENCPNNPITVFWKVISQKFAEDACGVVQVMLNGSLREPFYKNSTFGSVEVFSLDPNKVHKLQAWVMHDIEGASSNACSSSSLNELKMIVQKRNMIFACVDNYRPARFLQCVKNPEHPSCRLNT

T2: murine CD38 on transiently transfected Expi293 cells (Origene MC208001) (murine, UniProt P56528 1-304)
T2 construct: whole, on cells; also called Murine (FACs)
T2 sequence (looked up): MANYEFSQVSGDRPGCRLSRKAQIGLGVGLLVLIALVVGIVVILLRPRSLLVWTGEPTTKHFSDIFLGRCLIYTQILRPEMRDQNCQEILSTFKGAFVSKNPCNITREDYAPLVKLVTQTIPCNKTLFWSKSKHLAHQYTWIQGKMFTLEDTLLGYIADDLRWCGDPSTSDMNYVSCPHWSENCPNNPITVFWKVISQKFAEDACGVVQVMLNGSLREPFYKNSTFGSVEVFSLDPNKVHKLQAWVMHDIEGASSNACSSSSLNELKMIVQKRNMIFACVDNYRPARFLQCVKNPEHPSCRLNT

B1: 40596p1.E4 (scFv, V domains shown)
VH: EVQLLESGGGLVQPGGSLRLSCAASGFDFSGSAMSWVRQAPGKGLEYVAGLGWSGSFIYYADSVKGRSTISRDNSKNTLYLQLNSLRAEDTAVYYCARNPGFGEMDVWGQGTTVTVSS
VL: EIVLTQSPGSLSLSPGERATLSCRASQTVGSNLAWYQQKPGQAPRLLIYGASTRATDIPDRFSGSGSGTEFTLTISSLQSEDFAVYYCQQYNSWPPLTFGGGTKVEIK
notes: tested as scFv-Fc supernatant
B2: 40769p1.1.B8 (scFv, V domains shown)
VH: EVQLLESGGGLVQPGGSLRLSCAASGFTFEDYAMSWVRQAPGKGLEWVSVISSKGGSTSNADSVKGRFTISRDNSKNTLYLQMNSLRAEDTAVYYCAKGMERQYYSYNAMDVWGQGTTVTVSS
VL: QSVLTQPPSASGTPGQRVTISCSGSNSNIDVDYVYWYQQLPGTAPRLLIYKDDQRPSGVPDRFSGSKSGTSASLAISGLQSEDEADYYCATWDDNLNSWLFGGGTKLTVL
notes: tested as scFv-Fc supernatant
B3: 40769p1.1.B10 (scFv, V domains shown)
VH: EVQLLESGGGLVQPGGSLRLSCTASGITFSRFNMFWVRQAPGKGLEFVASIRDDGSWTYYADSVKGRFTISRDNSKNTLYLQMNSLRAEDTAVYYCAKDYNSKDFIYHYVMDVWGQGTTVTVSS
VL: QSVLTQPPSASGTPGQRVTISCSGRNSNIGNNVVNWYQQLPGTAPKLLIYRNQERPSGVPDRFSGSKSGTSASLAISGLQSEDEADYYCSTWDDSLNGWVFGGGTKLTVL
notes: tested as scFv-Fc supernatant
B4: 40769p1.1.A2 (scFv, V domains shown)
VH: EVQLLESGGGLVQPGGSLRLSCAASGFLFDDYGMSWVRQAPGKGLEWVSAISYKGGSTYYADSVKGRFTISRDNSKNTLYLQMSSLRAEDTAVYYCAKDHKWNYYGMDVWGQGTTVTVSS
VL: QSVLTQPPSASGTPGQRVTISCSGSTSNIGNDNYVSWYQQLPGTAPRLLIYKDDQRPSGVPDRFSGSKSGTSASLAISGLQSEDEADYYCGTWDDRLNAWVFGGGTKLTVL
notes: tested as scFv-Fc supernatant
B5: 40769p1.1.E2 (scFv, V domains shown)
VH: EVLLLESGGGLVQPGGSLRLSCAASGFTFSDYWMSWVRQAPGKGLEWVSTISISAGIIYYADSVKGRFTISRDNSKNTLYLQMNSLRAEDTAVYYCAKDNWNDYYGMDVWGQGTTVTVSS
VL: QSVLTQPPSASGTPGQRVTMSCSGNNQNIRDNYVYWYQQVPGTAPKLLIYKDDQRPSGVPDRFSGSKSGTSASLAISGLQSEDEADYYCATWDGSLKARVFGGGTKLTVL
notes: tested as scFv-Fc supernatant
B6: 40769p1.1.G10 (scFv, V domains shown)
VH: B5 VH with L3Q, S35N, I53S, S54G, A55G, G56S, I57M, Y60H, A88P
VL: B5 VL with T19N, M20I, N25S, N26S, Q27S, D31Y, K67E, K97N
notes: tested as scFv-Fc supernatant
B7: 40769p1.1.G5 (scFv, V domains shown)
VH: EVQLLESGGGFVQPGGSLRLSCAASGFNFNNAWMNWVRQAPGKGLEWVGIINGDGTNTYYADSVKGRFTISRDNSKNTLYLQMSSLRAEDTAIYYCARDNKLNDYYYAMDVWGQGTTVTV
VL: QSVLTQPSSASGTPGQRVTISCSGGSSNIHANYVYWYQQLPGTAPKLLIYRNSQRPSGVPDRFSGSKSGTSASLAISGLQSEDEADYYCGTWDNILNVWVFGGGTKLTVL
notes: tested as scFv-Fc supernatant
B8: 40769p1.2.E3 (scFv, V domains shown)
VH: EVQLLESGGDLVQPGGSLRLSCGASGFTFSDHYMSWVRQAPGKGLEWVADISARGSNTWYADSVKGRFTISRDNSENTLYLQMNSLRAEDTAVYYCAKNWNYNYGMDVWGQGTTVTVSS
VL: QSVLTQAPSASGTPGQRVTISCSGSSIQNNYVSWYQQLPGTAPKLLIYRNFERPSGVPDRFSASKSGTSASLAISGLQSEDEADYYCASWDDSLNWVFGGGTKLTVL
notes: tested as scFv-Fc supernatant
B9: 40769p1.2.F9 (scFv, V domains shown)
VH: B8 VH
VL: B8 VL with E80G
notes: tested as scFv-Fc supernatant
B10: 40769p1.2.B4 (scFv, V domains shown)
VH: B8 VH with Q111H
VL: B8 VL
notes: tested as scFv-Fc supernatant
B11: 40769p1.1.H3 (scFv, V domains shown)
VH: EVQLLESGGGLVQPGGSLRLSCAASGFAFNDYLMSWVRQAPGKGLEWVSTISWSGGSTYYADSVKGRFTISRDNSKNTLYLQMNSLRAEDTALYYCARDRYRYNYYYFMDVWGQGTTVTV
VL: QSVLTQPPSASGTPGQRVTISCSGSTSDSPYDRIDWYQQLPGTAPKLLIYKDDQRPSGVPDRFSGSKSGTSASLAISGLQSEDEADYYCATWDAMLSAWVFGGGTKLTVL

Target: T3, His-tagged human CD38 (ACRO Biosystems cat #CD8-H5224) (human, UniProt P28907 43-300)
T3 construct: bought recombinant protein with His tag
Assay: ELISA, coated His-CD38

Row | Binder | ELISA 1 ug/ml
1 | B1 | 1.93
2 | B2 | 1.64
3 | B3 | 1.5
4 | B4 | 1.61
5 | B5 | 1.65
6 | B6 | 1.75
7 | B7 | 1.72
8 | B8 | 1.59
9 | B9 | 1.47
10 | B10 | 1.55

Target: T4, His-tagged cynomolgus monkey CD38 (ACRO Biosystems cat #CD8-05223) (cynomolgus monkey, UniProt Q5VAN0 43-301)
T4 construct: bought recombinant protein with His tag
Assay: ELISA, coated His-CD38

Row | Binder | ELISA 1 ug/ml
11 | B1 | 1.77
12 | B2 | 1.75
13 | B3 | 2.05
14 | B4 | 1.73
15 | B5 | 1.98
16 | B6 | 2.11
17 | B7 | 2.01
18 | B8 | 1.7
19 | B9 | 1.56
20 | B10 | 1.73

Target: T1, His-tagged mouse CD38 (ACRO Biosystems …)
Assay: ELISA, coated His-CD38

Row | Binder | ELISA 1 ug/ml
21 | B1 | 1.72
22 | B2 | 0.048
23 | B3 | 0.049
24 | B4 | 0.049
25 | B11 | 0.049

Target: T3, His-tagged human CD38 (ACRO Biosystems …)
Assay: SPR, captured scFv-Fc, His-CD38 analyte;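 also: SPR on a Carterra LSA, scFv-Fc captured by anti-human Fc on HC30M chip, His-tagged CD38 (human, mouse, cynomolgus) flowed as analyte in eight 1:2 steps from 400 nM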

Row | Binder | Kd [nM]
26 | B1 | 56.9
27 | B2 | 0.101
28 | B3 | 8.02
29 | B4 | 0.319
30 | B5 | 3.23
31 | B6 | 78.9
32 | B7 | 3.11
33 | B8 | 2.24
34 | B9 | 17.1
35 | B10 | 2.38

Target: T4, His-tagged cynomolgus monkey CD38 (ACRO …)
Assay: SPR, captured scFv-Fc, His-CD38 analyte;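 also: SPR on a Carterra LSA, scFv-Fc captured by anti-human Fc on HC30M chip, His-tagged CD38 (human, mouse, cynomolgus) flowed as analyte in eight 1:2 steps from 400 nM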

Row | Binder | Kd [nM]
36 | B1 | 17.8
37 | B2 | 1.62
38 | B3 | 96400
39 | B4 | 0.35
40 | B5 | 4.4
41 | B6 | 154
42 | B7 | 11.5
43 | B8 | 2.11
44 | B10 | 2.34

Target: T5, human CD38 on transiently transfected Expi293 cells (Origene #SC321273) (human, UniProt P28907 1-300)
T5 construct: whole, on cells; also called Human (FACs)
Assay: flow cytometry, transfected Expi293 cells;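 also: antibody binding to Expi293 cells transiently expressing human or murine CD38, antibodies applied at 10 ug/ml for 60 min on ice, read by flow cytometry as percent gated cells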

Row | Binder | FACs 10 ug/ml (percent gated) [%]
45 | B1 | 64.2
46 | B2 | 81.4
47 | B3 | 76.4
48 | B4 | 78.5
49 | B5 | 82
50 | B6 | 77.5
51 | B7 | 84.4
52 | B8 | 80.5
53 | B9 | 79.4
54 | B10 | 81
55 | B11 | 82.5

Target: T2, murine CD38 on transiently transfected …
Assay: flow cytometry, transfected Expi293 cells;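 also: antibody binding to Expi293 cells transiently expressing human or murine CD38, antibodies applied at 10 ug/ml for 60 min on ice, read by flow cytometry as percent gated cells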

Row | Binder | FACs 10 ug/ml (percent gated) [%]
56 | B1 | 34
57 | B2 | 0.04
58 | B3 | 0.38
59 | B4 | 2.65
60 | B11 | 3.84
